Legend:
Assay in all cases: Crosslinking/co-immunoprecipitation/mass spectrometry (TMT quantitative proteomics) to identify irisin receptors
Format in all cases: binding
[1] = target: T1, MLO-Y4 cell surface proteins (Mus musculus, UniProt Q6ZQ93); settings: co-precipitated protein Usp34 (UBP34_MOUSE)
T1 construct: endogenous in cells; host or cells: MLO-Y4
In short: (§1)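 Relative protein abundance came from 6-plex TMT MS3 quantitation on an Orbitrap Fusion Lumos, after in-gel trypsin digestion of Coomassie-stained SDS-PAGE lanes. Input was a Ni-NTA pulldown (250 mM imidazole elution) of lysates from murine MLO-Y4 cells. These cells were treated on ice with His-tagged irisin or adipsin (10 nM, 20 min) in serum-free medium, then crosslinked with 1.5 mM DTSSP for 30 min.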

[2] = target: T2, MLO-Y4 cell surface proteins (Mus musculus, UniProt P16675); settings: co-precipitated protein Ctsa (PPGB_MOUSE)
T2 construct: endogenous in cells; host or cells: MLO-Y4
T2 sequence (P16675 24-474): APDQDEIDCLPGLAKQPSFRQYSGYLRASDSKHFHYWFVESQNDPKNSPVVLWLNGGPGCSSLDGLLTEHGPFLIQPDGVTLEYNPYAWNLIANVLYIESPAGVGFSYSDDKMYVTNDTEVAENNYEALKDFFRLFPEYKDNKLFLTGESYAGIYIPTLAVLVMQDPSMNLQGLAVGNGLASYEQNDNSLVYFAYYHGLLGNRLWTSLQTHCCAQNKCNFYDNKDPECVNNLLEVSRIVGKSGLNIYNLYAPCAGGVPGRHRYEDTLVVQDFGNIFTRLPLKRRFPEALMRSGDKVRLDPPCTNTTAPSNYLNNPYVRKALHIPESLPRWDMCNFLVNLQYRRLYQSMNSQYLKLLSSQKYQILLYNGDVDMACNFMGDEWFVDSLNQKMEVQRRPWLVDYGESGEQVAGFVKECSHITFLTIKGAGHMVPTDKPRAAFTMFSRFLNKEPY
In short: as §1

[3] = target: T3, MLO-Y4 cell surface proteins (Mus musculus, UniProt P61161); settings: co-precipitated protein Actr2 (ARP2_MOUSE)
T3 construct: endogenous in cells; host or cells: MLO-Y4
In short: as §1

[4] = target: T4, MLO-Y4 cell surface proteins (Mus musculus, UniProt Q8R1J9); settings: co-precipitated protein Tor2a (TOR2A_MOUSE)
T4 construct: endogenous in cells; host or cells: MLO-Y4
T4 sequence (Q8R1J9 27-321): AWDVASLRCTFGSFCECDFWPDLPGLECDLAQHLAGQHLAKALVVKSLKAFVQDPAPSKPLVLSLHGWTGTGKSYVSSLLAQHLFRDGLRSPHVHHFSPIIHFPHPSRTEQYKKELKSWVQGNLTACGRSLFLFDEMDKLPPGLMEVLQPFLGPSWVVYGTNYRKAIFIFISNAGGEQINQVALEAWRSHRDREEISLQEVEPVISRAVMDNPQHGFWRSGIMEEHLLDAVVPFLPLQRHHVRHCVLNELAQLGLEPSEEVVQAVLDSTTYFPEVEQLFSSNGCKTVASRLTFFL
In short: as §1

[5] = target: T5, MLO-Y4 cell surface proteins (Mus musculus, UniProt Q8K273); settings: TMT ratio, Mmgt1 Membrane magnesium transporter 1
T5 construct: endogenous in cells; host or cells: MLO-Y4
T5 sequence (Q8K273 1-131): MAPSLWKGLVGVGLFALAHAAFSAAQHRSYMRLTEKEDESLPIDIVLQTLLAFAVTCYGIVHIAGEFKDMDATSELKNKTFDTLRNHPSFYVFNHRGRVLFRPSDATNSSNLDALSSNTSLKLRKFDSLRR
In short: as §1

T1 sequence (Q6ZQ93 whole entry): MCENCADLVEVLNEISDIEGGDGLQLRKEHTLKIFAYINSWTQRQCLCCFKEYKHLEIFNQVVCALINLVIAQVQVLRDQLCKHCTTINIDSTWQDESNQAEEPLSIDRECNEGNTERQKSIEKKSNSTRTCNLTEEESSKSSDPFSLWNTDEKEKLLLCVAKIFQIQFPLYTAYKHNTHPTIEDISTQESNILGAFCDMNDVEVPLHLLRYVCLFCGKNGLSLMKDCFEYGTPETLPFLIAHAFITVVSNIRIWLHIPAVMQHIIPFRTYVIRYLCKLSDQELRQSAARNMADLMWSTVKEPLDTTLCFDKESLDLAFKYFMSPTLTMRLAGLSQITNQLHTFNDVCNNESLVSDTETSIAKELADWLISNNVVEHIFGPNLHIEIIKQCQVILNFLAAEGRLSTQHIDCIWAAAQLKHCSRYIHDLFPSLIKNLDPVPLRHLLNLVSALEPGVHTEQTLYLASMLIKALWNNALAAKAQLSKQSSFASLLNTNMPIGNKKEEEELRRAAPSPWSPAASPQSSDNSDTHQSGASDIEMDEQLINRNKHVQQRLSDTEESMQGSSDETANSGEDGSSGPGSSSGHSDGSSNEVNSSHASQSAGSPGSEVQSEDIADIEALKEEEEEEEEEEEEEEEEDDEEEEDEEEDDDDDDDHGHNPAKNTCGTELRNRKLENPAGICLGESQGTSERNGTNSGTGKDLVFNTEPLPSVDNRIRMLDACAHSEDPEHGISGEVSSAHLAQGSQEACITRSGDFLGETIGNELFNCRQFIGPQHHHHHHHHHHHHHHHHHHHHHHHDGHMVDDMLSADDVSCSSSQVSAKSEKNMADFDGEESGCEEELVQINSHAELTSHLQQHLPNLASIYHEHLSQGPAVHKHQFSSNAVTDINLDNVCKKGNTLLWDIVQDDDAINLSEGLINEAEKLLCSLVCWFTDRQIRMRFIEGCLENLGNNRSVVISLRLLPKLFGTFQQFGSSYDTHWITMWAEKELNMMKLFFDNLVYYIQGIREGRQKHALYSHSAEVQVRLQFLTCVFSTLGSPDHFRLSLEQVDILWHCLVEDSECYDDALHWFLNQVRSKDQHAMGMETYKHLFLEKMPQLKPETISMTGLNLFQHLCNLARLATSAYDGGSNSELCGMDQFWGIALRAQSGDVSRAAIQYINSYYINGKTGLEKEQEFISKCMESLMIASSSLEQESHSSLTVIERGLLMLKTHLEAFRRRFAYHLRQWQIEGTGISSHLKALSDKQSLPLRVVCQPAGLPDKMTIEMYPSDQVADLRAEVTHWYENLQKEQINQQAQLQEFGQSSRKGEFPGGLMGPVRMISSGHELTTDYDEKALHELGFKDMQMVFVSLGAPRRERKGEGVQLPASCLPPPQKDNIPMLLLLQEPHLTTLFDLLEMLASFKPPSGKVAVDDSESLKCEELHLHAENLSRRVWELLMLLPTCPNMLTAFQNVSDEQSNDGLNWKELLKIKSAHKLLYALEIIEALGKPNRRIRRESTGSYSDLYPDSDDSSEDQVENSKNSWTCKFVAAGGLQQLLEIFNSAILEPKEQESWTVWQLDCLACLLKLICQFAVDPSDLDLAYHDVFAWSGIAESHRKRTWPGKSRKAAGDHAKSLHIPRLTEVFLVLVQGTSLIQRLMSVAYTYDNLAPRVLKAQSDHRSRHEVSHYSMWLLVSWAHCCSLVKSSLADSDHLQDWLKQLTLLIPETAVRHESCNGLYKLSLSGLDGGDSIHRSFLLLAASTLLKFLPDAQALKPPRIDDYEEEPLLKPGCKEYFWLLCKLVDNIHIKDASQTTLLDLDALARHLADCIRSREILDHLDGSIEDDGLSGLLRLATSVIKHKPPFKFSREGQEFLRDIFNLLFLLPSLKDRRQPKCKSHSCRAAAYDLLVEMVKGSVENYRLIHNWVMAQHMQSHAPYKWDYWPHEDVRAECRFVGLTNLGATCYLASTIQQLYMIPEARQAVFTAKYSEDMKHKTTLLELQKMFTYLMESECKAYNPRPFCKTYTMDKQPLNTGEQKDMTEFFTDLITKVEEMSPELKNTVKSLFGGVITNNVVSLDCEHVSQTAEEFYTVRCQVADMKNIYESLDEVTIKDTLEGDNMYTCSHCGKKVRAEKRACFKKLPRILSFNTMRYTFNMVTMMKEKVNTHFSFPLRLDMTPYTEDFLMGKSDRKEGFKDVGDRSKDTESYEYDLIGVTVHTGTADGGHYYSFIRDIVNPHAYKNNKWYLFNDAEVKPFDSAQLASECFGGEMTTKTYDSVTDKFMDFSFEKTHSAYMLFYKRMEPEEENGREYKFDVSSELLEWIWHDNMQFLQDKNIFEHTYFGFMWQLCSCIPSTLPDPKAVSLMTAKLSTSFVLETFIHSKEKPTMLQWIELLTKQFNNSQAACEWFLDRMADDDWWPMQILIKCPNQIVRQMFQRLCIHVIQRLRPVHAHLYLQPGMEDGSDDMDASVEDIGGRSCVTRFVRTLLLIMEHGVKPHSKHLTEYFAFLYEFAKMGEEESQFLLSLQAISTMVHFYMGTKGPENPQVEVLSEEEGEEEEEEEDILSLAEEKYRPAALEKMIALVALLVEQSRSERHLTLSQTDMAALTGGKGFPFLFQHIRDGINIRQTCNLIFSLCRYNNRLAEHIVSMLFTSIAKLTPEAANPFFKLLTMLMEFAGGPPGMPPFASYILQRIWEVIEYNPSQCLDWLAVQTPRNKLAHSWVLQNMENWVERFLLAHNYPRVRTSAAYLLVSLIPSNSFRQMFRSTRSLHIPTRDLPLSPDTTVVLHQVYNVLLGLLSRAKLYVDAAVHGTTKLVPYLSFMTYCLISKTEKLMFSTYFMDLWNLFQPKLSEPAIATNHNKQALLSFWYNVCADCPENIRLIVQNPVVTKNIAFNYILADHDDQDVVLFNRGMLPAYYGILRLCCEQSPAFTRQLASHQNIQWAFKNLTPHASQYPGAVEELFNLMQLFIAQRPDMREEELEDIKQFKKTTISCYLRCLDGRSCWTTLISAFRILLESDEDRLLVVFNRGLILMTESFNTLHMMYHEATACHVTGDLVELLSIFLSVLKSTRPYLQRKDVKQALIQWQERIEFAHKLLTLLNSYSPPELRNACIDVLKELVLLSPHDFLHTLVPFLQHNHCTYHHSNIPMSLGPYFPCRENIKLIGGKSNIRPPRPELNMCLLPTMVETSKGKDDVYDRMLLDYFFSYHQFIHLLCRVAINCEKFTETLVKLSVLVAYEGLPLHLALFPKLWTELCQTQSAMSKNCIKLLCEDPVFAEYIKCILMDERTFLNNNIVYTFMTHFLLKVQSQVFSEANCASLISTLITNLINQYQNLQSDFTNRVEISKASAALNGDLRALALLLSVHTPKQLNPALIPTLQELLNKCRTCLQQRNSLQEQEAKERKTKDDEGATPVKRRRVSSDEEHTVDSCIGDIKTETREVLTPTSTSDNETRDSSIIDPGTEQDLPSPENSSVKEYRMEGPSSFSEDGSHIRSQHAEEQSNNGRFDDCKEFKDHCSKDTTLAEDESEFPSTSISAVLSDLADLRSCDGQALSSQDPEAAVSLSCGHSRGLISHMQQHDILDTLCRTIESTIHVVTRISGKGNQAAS

B1: irisin: secreted cleaved form of FNDC5; recombinant human/mouse irisin with C-terminal his tag produced in HEK293 cells (protein)
chain: DSPSAPVNVTVRHLKANSAVVSWDVLEDEVVIGFAISQQKKDVRMLRFIQEVNTTTRSCALWDLEEDTEYIVHVQAISIQGQSPASEPVLFKTPREAEKMASKNKDEVTMKE
modifications: left off: small tags and cut ends
notes: secreted cleaved form of FNDC5; recombinant human/mouse irisin with C-terminal his tag produced in HEK293 cells
Which results are given for B1?
TMT signal-to-noise ratio [1]: 98.0506; irisin/adipsin TMT signal-to-noise ratio [1]: 0.094; TMT signal-to-noise ratio [2]: 111.377; irisin/adipsin TMT signal-to-noise ratio [2]: 0.311; TMT signal-to-noise ratio [3]: 84.7644; irisin/adipsin TMT signal-to-noise ratio [3]: 0.552; TMT signal-to-noise ratio [4]: 338.383; irisin/adipsin TMT signal-to-noise ratio [4]: 0.486; irsin/adipsin [5]: 2.94
